Assay: label from the status in PepcDB records

Sequence: MNNPQCSYTVRCFFLALLVNLFLPNILPRQLASAQDVPSEASSDAPDLGVVWTPSTAPDSALAALDRIAATGATAVRLTHLPADTTATTIATRADSLGLRLYVDLPMADGSAPRPDEARPQADASLDQLRSLANRHASITHVGLARGASTTGSRRCDRLRRWTERIHDASASLHTYYVTPFVPSADRCADAVDQPLLDLRGHPRPTDRWRAWRTRTDSVGIGALGTWTRPAAASGLRVPHSAERQARYLETTLSRLLDPTRAAPPVVFVARWQDDDASLLPSRRYGLHDAAGTPRPAATVVRGLYSGTQRTFAFPDGSAPAGTSGLVLVGWGLVAVLGLLYARSLFVRETAVRYFTTPGFYREALRDGREVSFGANSLLLGLVGGSLGVAAARMARLATAQPETERVLAALPRVVGTALAPGVEHPTLAGVAVGGGALVLLLLWTGAGVAMARLGTRFTVAQGLMLVTWPCWPVLLAPPVALAAGPNAPLSPSLSTLVLLGGGTLVLLSVTLRVLFDYWRVTDAPAWTLLPLAALSPLALVGASLLVAAQYGVSFSLLWRLAVYT
- protein production: failed

Sequence: MNNRGAVTDMISQLPEPLILQILGSLPTKVAITTSVLSKQWQSHWKMMPKLEFDSFLRRLDLENVTKCLLSHKAPVLQTFSLKVRLDRRNNAVDIGCLIGIAMTRNVRKLVLEVYFHRGTFTFPRSLYHCETLETLELILNVVMDVPPSVYLKSLKTLYLLAVDFKDDESVINLLSGCPNLQDLVMRRNSSSNVKTFTIAVPSLQRLAIHNGSGTPQHCGYTINTPSLKYLKLEGSKAFESFMVENVSELIEVNITDVSEIIDEKLRVFLTSVTRLSLALSPSVFTFPTGIIFNQLVYLEICTNKTSWWKLLPLMLHSSPKLQVLKLIDDTDGMNYVEASGEWNQPKNVPECLHHLEKFIWEGYKWKREEIEVAKYILKNTNRLKRAIFSLKGISSEDRLVVVEDLKSVVMATTNSCQFQFI
- protein production: failed

Sequence: MNNRVEILYCTQCRWLLRATWMTQELLTTFDQEIGELTLKPGTGGLFEVWVNGKRIWSRKEQGGFPEISELKRLVRDEVAPGRDLGHADQKGKTGASPAPAEP
- protein production: failed

Sequence: MNNSVSSGYDVIGDVHGCASQLEVLLHKLGYETGASGEYRHPERQAIFVGDLIDRGGEQLRVLEVVKAMVDAGSALIVMGNHEFNALAYHTEWPVGSGKYLRPHDDPDNPWSAKNTKQHAAFLDQVRGEDRQRCLEWFATIPLWLDLGELRVVHACWHDDSIGVVENLCGSNAPFGDVSHLVAASTEDDPLYEAVETLLKGPEINLVAHGQPEYHDKDGIPRDNARVQWWNSDARTLRDIAEMGGGFTTSTGEPYPPLPEIALTGADRSYIYTAEIPVFYGHYWRQGSPKHRHDWTDYTACVDFSAVKGGRLTAYRWSGESTIKAENYVTAD
- protein production: failed

Sequence: MNNTDCLLGRRKEINETAYANVLKKELVVYMKRKLMIFFIASVVTLLICSVAVLASGEDVHILINNNGIKFSIPPYVKDEEVFLPMREIFELYGFEVNWNGTERSAEAAKDGKIVKVKVGSNIVKLYGEDYNSKDDVFIFRDRIFISTDVIEAGLNIKVKWDKNKRTIYLNEYTNESITIVGNDNSVILGSNILVNISPRYDIDTVNKIIGENDEMLVEKNYTGAIRGYKELLKHISAKENPEEYIHVLINLGNAYVELASIVNREQNALEAILFYEEALKVDSIDKYPHKKALANRGMGSAYFILSTVRDVEKNTAKALEMFNEALNIFVKDGDQYNCGYLHYLKGRTYYWMAASTNTRDNIIKSLDSLEEALTTFNTENYKDEYIIARSCHGLVLTQFFNFSGEVEHLQRAFDAFNEVLDNITIEEKPILYASTYMQLASYYMYLANKDGDVESYYKCISCMQESLKVYTLDSDSYNYAVAYANIGKAYLLMSYLSQTNVNIDRALSAYEEALKVFKISQFPFNYASVQIDLGEAYTVKAGITGSEEDYNNAQNAFNNALKIYTLKNYPYQYAKTYSEFGKMYIALAYIKDKEENNKKAIECFNEALKVYSFEKYPVLYGYNQELIALSNIELSKIRDPKKHLNKSVEVCNNALKVFRKENIPYLYGVVNIYLGNSYTFLASIENTKENCIQAEKAYMNALEIFTKDASLTYYLEAMTGLAENYVIKSQVENRKENLEKAIAKCNDIIELLDRHRSSPYYGKAQYILLLSYLGLSDFENKEVNLNKALIANREAVSVFEEGNLVFDKSIALAAGANIYLKYSEVNNTVKNLTEAKRTVESALTYFKKENYPYQYAILMNSMGTIYQKLSEKENRIDNLKKSIEAYKEANEIFSIEEYGLYFAKTKHDMGDVYMKLAGSEDRKANIQKALECFSEAIRIYTNEDYPLIHEEIIKKMENIKK
- protein production: failed

Sequence: MNNTGLSVKKVVAIGIGSAIYVILARFTSIPTPIPNTNIELVFPFLAFFASIYGATVGFSVGFIGHALSDFIMYGQTWWSWVLATGILGWIIGLAYKRLDLKNGIFGLKQIILFNIVQIIANILAWIVVAPIGDIIIYSEPANKVFVQGISATISNGISILIIGTILLKAYASTKIKKGSLRKED
- protein production: failed

Sequence: MNNVTTTLTDTTWYKAGTITDVPENGGACAMIQGKQIAIFNFTRRDEWFATDNLCPHKQQMILSRGMIGDMSEEPKVACPFHKKSFSLKDGHCMSGDDYTIKTYPIKVEDGLIFIGLNE
- protein production: failed

Sequence: MNPANGEVTSYWFPGTTSGILTRNGSMIHLLSITASVLHPDDPSLSERESVQVQQYRLSSLLAAVLLPVFGTLYSWADPQAVDPAWIRLALSGLLLGLFVGSYLSDRVCRNYVPLT
- protein production: failed

Sequence: MNPDFLGALLIGLVGAGHCMGMCGGIASLLSLGSSSSKSSPTIPLFYNLGRLSSYALIGALVGGAISGLSELSGLAQSLAWLRFVAAIFMILVALYIAKWWQGLLIVEKMGQHLWKFISPAGKSLLPLKKPIHALPFGFVWGWLPCGLVYSALTWSAVSGSAVNGGLIMLAFGLGTLPSMLAVGYGASHFQKLQKSLIFRNISALILIVYGAYTAAGAMQMLGFI
- protein production: failed

Sequence: MNPGAYAVPSSAQGWTGTESIGKSSAVNHHRDDGGQEMAGALRKMAVYLGLVEDDRYDHRYADEYDDFEDFDEPLDERPSRNRSPRDDSRNNAVTDSSDHSPSRNERRSPAPAPATADLARITTLHPRTYNEARTIGEHFREGIPVIMNLTEMVDSDAKRLVDFAAGLIFGLHGSIERVTNKVFLLSPANVEVTAEDKARIAERGFFNQS
- protein production: failed

Sequence: MNPGGAEVSVVIPAWNAEATLGRALASVRAQTLAPRQVIVVNDGSSDATPEIAARMATKTFPVTVIDRTGRGSGPAAARNAGIAAAGEPFVAFLDADDVWLPDKLARQMAALRASPDAVLCCCDAQWVGEDAPARTAHPTIYEDRPIKGGAEAWKEILLDCYVGTPCVVARRAALIEAGGFDERLVVGEDQDLWIRLALQGPVIALPEVLVRYGLSADSHMARHRALAASLWLPHFEALVSGLGARLSAGERDAILRARLWRMARSVYLDGRKDLGLSLMARAVAHGLPRRARMVFLARARLRSALGRNGLEHHHHHH
- protein production: failed

Sequence: MNPIILALFDVSIFILLAEILSSLVQKYGLPKLIGELLAGMIIGPYALGSLLNQLLGFPLIGINSYIEFLAEFSVILLIFASGLEHGIAPIKSSGILGFLGATFGALLPFFAAYYFYISSFGLDSALILGTAMGATSLAAVASIIEEGKLKGKGINFMVSSAAADDVVDLLLLSVVIAILQGESTSVTSISLKIIALVVIWVVILVVSIILIPKITDRISDKYIEEFPLAVLFGLTLLMVSLGYSPIISAFVAGVAFANSVKNSKIKEISSTLLSVFGPLFFVYIGAEVNFLTLNLNTVILSLELTAIATIFKWLGIFPFALAYLRNAKAANTVALGMVPRGETGLVIASLGLSYNALNQEEFEGIVFMSIFTTLIGSALFKIYAKKHLVS
- protein production: failed

Sequence: MNPPSGPRVPPSPTQEPSCMATPAPPSWWDSSQSSISSLGRLPSISPTAPGTWAAAWVPLPTVDVPDHAHYTLGTVILLVGLTGMLGNLTVIYTFCRSRSLRTPANMFIINLAVSDFLMSFTQAPVFFTSSLYKQWLFGETGCEFYAFCGALFGISSMITLTAIALDRYLVITRPLATFGVASKRRAAFVLLGVWLYALAWSLPPFFGWSAYVPEGLLTSCSWDYMSFTPAVRAYTMLLCCFVFFLPLLIIIYCYIFIFRAIRETGRALQTFGACKGNGESLWQRQRLQSECKMAKIMLLVILLFVLSWAPYSAVALVAFAGYAHVLTPYMSSVPAVIAKASAIHNPIIYAITHPKYRVAIAQHLPCLGVLLGVSRRHSRPYPSYRSTHRSTLTSHTSNLSWISIRRRQESLGSESEVGWTHMEAAAVWGAAQQANGRSLYGQGLEDLEAKAPPRPQGHEAETPGKTKGLIPSQDPRM
- protein production: failed

Sequence: MNPSHGRGLGSAGGSSSGRNQGGGGETVVEMFPSGLRVLVVDDDPTCLMILERMLRTCLYEVTKCNRAEMALSLLRKNKHGFDIVISDVHMPDMD
- protein production: failed

Sequence: MNQCRLRSLARIRRSLTLGLRGTDQHVLARQALRTIQTTSQRRGVHDLDSFANGCSAAYIEGLYNKWKRNPSSVDESWNELFSSNDWSSPKRSPLQVSHSRKYRRPPVERIAVKARSGERTASGGASAAPAAPPSDWKNIDDHHVIQAIIRAYQSRGHLAADLDPLGIVGPKKRTSVDGTQRHAAREVLRQHFSYIFNDLNTVFKLPSSTMIGGDQEFLSLKEILDRLERIYCGHIGVEYMQITSLTKTNWLRDRFEKPGGLDLTKEEKKLILERLTRSTGFENFLAKKFSSEKRFGLEGCDIMIPAIKEVVDRATDHGVESILIGMAHRGRLNVLANICRKPISDILSQFHGLQATDSGSGDVKYHLGVFQERLNRQTNRMVRITVVANPSHLEHVNPVLLGKARAEMFQRGDTCGSTVMPIIIHGDASFSGQGVVYESMHLSDLPNYTTYGTIHIVSNNQVGFTTDPRFSRSSRYCTDVAKVVNAPILHVNADDPEACIQCARIAIDYRTRFKKDVVIDIVGYRRNGHNEADEPMFTQPLMYQRIKKLKPCLQLYADKLIKEGVVTDSEFKAMVSSYEKICEDAWAKSKTIKTIKYSSWIDSPWPGFFEGRDRLKLCPTGISTDTLKTIGNMFSTPPPPEHKFETHKGILRILAQRTQMVQDKVADWSLGEAFAFGSLLKEGIHVRLSGQDVERGTFSHRHHVLHHQSEDKVVYNSLDHLYPDQAPYSVSNSSLSECAVLGFEHGYSMASPNALVMWEGQFGDFCNTAQCIIDTFIASGETKWVRQSGVVMLLPHSMEGMGPEHSSGRIERFLQMSDDDPDVYPDTCDADFVARQLMNVNWIVTNLSTPANLFHCLRRQVKMGFRKPLINFSPKSLLRHPLARSPFKDFNECSCFQRIIPDKGPAGKQPDCVQKLVFCSGKVYYDLVKERDDHEQVETVALVRVEQLCPFPYDLISQQLELYPKAELLWAQEEHKNMGAWSYVQPRFDTALLKNENESRCVSYHGRPPSASPATGNKVQHYNEYKALITSIFGELTPENKKRIEDRIKKQQAKAKADAQSKPSTKPPAAPPKGGSSPPPGPAPRKPLISLPSRPPRGGKQRSGSAPAPNLVDEDSAARNREPDASAYDGASPSAWKRSGSAPAPSVVPRASASRSPSRKSPSPSHDGISPSTRQESLSKKKSGSAPAPTPTSRGPFRTAPSNTEFIKRRPAKDYGSRNETQSTPGESELDPTKPQP
- protein production: failed

Sequence: MNQGKIITVSGPLVVASGMQEANIQDICRVGHLGLVGEIIEMRRDQASIQVYEETSGIGPGEPVVTTGCPLSVELGPGLISEMFDGIQRPLDRFQKATDSDFLIRGVAIPSLDRKAKWAFIPKLSVGQEVVAGDILGTVQETAVIEHRIMVPYKVSGTLVAIHAGDFTVTDTVYEIKQEDGSIYQGSLMQTWPVRQSRPVAQKLIPVEPLVTGQRVIDTFFPVTKGGAAAVPGPFGAGKTVVQHQIAKFANVDIVIYVGCGERGNEMTDVLNEFPELIDPNTGQSIMERTVLIANTSNMPVAAREASIYTGITIAEYFRDMGYSVAIMADSTSRWAEALREMSGRLQEMPGDEGYPAYLGSRIAEYYERAGRVRTLGSQEREGTITAIGAVSPPGGDISEPVTQNTLRIVKVFWGLDAPLAQRRHFPAINWLTSYSLYQDDVGSYIDRKQQSNWSNKVTRAMAILQREASLEEIVRLVGLDSLSEQDRLTMAVARQIREDYLQQNAFDSVDTFTSFPKQEAMLTNILTFNEEASKALSLGAYFNEIMEGTAQVRDRIARSKFIPEENLEQIKGLTQKVTKEIHHVLAKGGI
- protein production: failed

Sequence: MNQLPNCPKCLSEYCYEDGDVLICPECTHEWPKNSNNNDEESAKIIKDANGNLLQNGDTITVVKDLKIKGSSQVIKVGTKVKNIRLVDGDHDIDCRIDGIGAMKLKSQFVKKILEHHHHHH
- protein production: failed

From a protein production outcome set (Wang et al. 2014)
